Data: the DeepSol protein solubility set

Assay: soluble on expression in E. coli; label from the status in PepcDB or PDB records

Soluble on expression in E. coli, soluble:
MHDISSLTTRTKTLPPLRVGVGGPVGSGKTTLLEMVCKAMYPQFDLIAITNDIYTKEDQRLLTLSGALPPERILGVETGGCPHTAIREDASINLIAIDQMLEQFPDADIVFVESGGDNLAATFSPELSDLTLYIIDVASGEKIPRKGGPGITKSDLFIINKTDLAPYVGADLAVMEADTRRMRGDKPFVMCNLKTGDGLDQVIAFLKTEGLFRGLEHHHHHH
MHHHHHHGTSLYKKAGSENLYFQGITTRTARQCGQADYGWLQARYTFSFGHYFDPKLLGYASLRVLNQEVLAPGAAFQPRTYPKVDILNVILDGEAEYRDSEGNHVQASAGEALLLSTQPGVSYSEHNLSKDKPLTRMQLWLDACPQRENPLIQKLALNMGKQQLIASPEGAMGSLQLRQQVWLHHIVLDKGESANFQLHGPRAYLQSIHGKFHALTHHEEKAALTCGDGAFIRDEANITLVADSPLRALLIDLPV
MHHHHHHSSGLVPRGSGMKETAAAKFERQHMDSPDLGTDDDDKMKLQSPEFQSLFTEGLKSLTELFVKENHELRIAGGAVRDLLNGVKPQDIDFATTATPTQMKEMFQSAGIRMINNRGEKHGTITARLHEENFEITTLRIDVTTDGRHAEVEFTTDWQKDAERRDLTINSMFLGFDGTLFDYFNGYEDLKNKKVRFVGHAKQRIQEDYLRILRYFRFYGRIVDKPGDHDPETLEAIAENAKGLAGISGERIWVELKKILVGNHVNHLIHLIYDLDVAPYIGLPANASLEEFDKVSKNVDGFSPKPVTLLASLFKVQDDVTKLDLRLKIAKEEKNLGLFIVKNRKDLIKATDSSDPLKPYQDFIIDSREPDATTRVCELLKYQGEHCLLKEMQQWSIPPFPVSGHDIRKVGISSGKEIGALLQQLREQWKKSGYQMEKDELLSYIKKT
MHHHHHHSSGVDLGTENLYFQSMGAGRRESEPRPTSARQLDGIRNIVLSNPKKRNTLSLAMLKSLQSDILHDADSNDLKVIIISAEGPVFSSGHDLKELTEEQGRDYHAEVFQTCSKVMMHIRNHPVPVIAMVNGLATAAGCQLVASCDIAVASDKSSFATPGVNVGLFCSTPGVALARAVPRKVALEMLFTGEPISAQEALLHGLLSKVVPEAELQEETMRIARKIASLSRPVVSLGKATFYKQLPQDLGTAYYLTSQAMVDNLALRDGQEGITAFLQKRKPVWSH
MHHHHHHSSGVDLGTENLYFQSMIAKSFYDLSAINLDGEKVDFNTFRGRAVLIENVASLCGTTTRDFTQLNELQCRFPRRLVVLGFPCNQFGHQENCQNEEILNSLKYVRPGGGYQPTFTLVQKCEVNGQNEHPVFAYLKDKLPYPYDDPFSLMTDPKLIIWSPVRRSDVAWNFEKFLIGPEGEPFRRYSRTFPTINIEPDIKRLLKV
MHHHHHHSSGVDLGTENLYFQSMLAVHFDKPGGPENLYVKEVAKPSPGEGEVLLKVAASALNRADLMQRQGQYDPPPGASNILGLEASGHVAELGPGCQGHWKIGDTAMALLPGGGQAQYVTVPEGLLMPIPEGLTLTQAAAIPEAWLTAFQLLHLVGNVQAGDYVLIHAGLSGVGTAAIQLTRMAGAIPLVTAGSQKKLQMAEKLGAAAGFNYKKEDFSEATLKFTKGAGVNLILDCIGGSYWEKNVNCLALDGRWVLYGLMGGGDINGPLFSKLLFKRGSLITSLLRSRDNKYKQMLVNAFTEQILPHFSTEGPQRLLPVLDRIYPVTEIQEAHKYMEANKNIGKIVLELPQ
MHHHHHHSSGVDLGTENLYFQSMVPPIPKQDGGEQNGGMQCKPYGAGPTEPAHPVDERLKNLEPKMIELIMNEIMDHGPPVNWEDIAGVEFAKATIKEIVVWPMLRPDIFTGLRGPPKGILLFGPPGTGKTLIGKCIASQSGATFFSISASSLTSKWVGEGEKMVRALFAVARCQQPAVIFIDEIDSLLSQRGDGEHESSRRIKTEFLVQLDGATTSSEDRILVVGATNRPQEIDEAARRRLVKRLYIPLPEASARKQIVINLMSKEQCCLSEEEIEQIVQQSDAFSGADMTQLCREASLGPIRSLQTADIATITPDQVRPIAYIDFENAFRTVRPSVSPKDLELYENWNKTFGCGK
MHKTHSTMSGKSMKVIGVLALQGAFLEHTNHLKRCLAENDYGIKIEIKTVKTPEDLAQCDALIIPGGESTSMSLIAQRTGLYPCLYEFVHNPEKVVWGTCAGLIFLSAQLENESALVKTLGVLKVDVRRNAFGRQAQSFTQKCDFSNFIPGCDNFPATFIRAPVIERILDPIAVKSLYELPVNGKDVVVAATQNHNILVTSFHPELADSDTRFHDWFIRQFVSN
MHLDRQSLEKAKHLIQSGLIDTIEVGTIKGLQEIHRFLFEGLYEFAGKIRDKNIAKGNFRFANCLYLDLILPRIESMPQNNFNQIVEKYVEMNIAHPFLEGNGRATRIWLDLLLKKELKKIVLWDRIDKAAYLSAMERSPVNDLEIKTLLKKHLSSNTNDPLTLIKGITQSYYYEGL
MHMSEANHKNIVVVGAGIIGTSVATMLSKVSPNWHIDMFERLEGAGIESSNENNNAGTGHAALCELNYTVEQDDGSIDASKAQEINEQFELSRQFWGNLVKNGDISNPEEFIQPLPHISFVMGPTNVNFLRKRYETLKTLPMFDTIEYTEDMETMRKWMPLMMENREPGHQMAASKIDEGTDVNYGALTRKLAHYLEQKSNVSLKYNHDVVDLTQREDGKWEVVVENRETKEKVTKIADKVFIGAGGHSIPLLQKSGVKQREHLGGFPISGQFLRCTNPDIIKQHAAKVYSKEPQGKPPMTVPHLDTRYINGKQTLLFGPYANIGPKFLKFGSNLDLFESIKPYNITTMLASAVKNVPLIKYSIDQMIKTKEGCMNYLRTFIPDAKDEDWELYTAGKRVQVIKDSEQHGKGFVVFGTEVVNSDDNSMIALLGESPGASTSLSVVLEVLEKNFADDKEAWEPVVKEMVPTYGRSLINDEKLMRETRRETSKNLHLNRMAGDPLEHHHHHH
MHNQAPIQRRKSTRIYVGNVPIGDGAPIAVQSMTNTRTTDVEATVNQIKALERVGADIVRVSVPTMDAAEAFKLIKQQVNVPLVADIHFDYRIALKVAEYGVDCLRINPGNIGNEERIRMVVDCARDKNIPIRIGVNAGSLEKDLQEKYGEPTPQALLESAMRHVDHLDRLNFDQFKVSVKASDVFLAVESYRLLAKQIDQPLHLGITEAGGARSGAVKSAIGLGLLLSEGIGDTLRVSLAADPVEEIKVGFDILKSLRIRSRGINFIACPTCSRQEFDVIGTVNALEQRLEDIITPMDVSIIGCVVNGPGEALVSTLGVTGGNKKSGLYEDGVRKDRLDNNDMIDQLEARIRAKASQLDEARRIDVQQVEK
MHSTPKRVLLAGATGLTGEHLLDRILSEPTLAKVIAPARKALAEHPRLDNPVGPLAELLPQLDGSIDTAFCCLGTTIKEAGSEEAFRAVDFDLPLAVGKRALEMGARHYLVVSALGADAKSSIFYNRVKGELEQALQEQGWPQLTIARPSLLFGPREEFRLAEILAAPIARILPGKYHGIEACDLARALWRLALEEGKGVRFVESDELRKLGK

Soluble on expression in E. coli, not soluble:
MHERLNFPKVELHLHLDGAVRFDTLIDLSQQKGIPLAGAKTVEELKKVLVTHEPANLSKVLEAFEIFLPVIRGDLAAIERVAYELCEDQHNNGVVYFEGRYSPHLLLCNDYPEVTAAHVVAAVKKGFDRGEKQFGIKARSILCCIRGLDKKFPQLILDLATDLKQLGVVAIDVAGSAHGADEQYEPEVVAAFQEAHKRGIHRTVHAGESGGPKEVIKAIEDMYAERIGHGYRVMRDEEMYLEHFVNSKNVHLEACPYSSVMTGAVPLDWKNHPIARWAKDDVNFSVSRDDPTCFDNSMLSELTLVHKQIGLDVHQLWKAQLNAARSCFLPEDEKAELVKRVEAGEPPRP
MHINRTGSSQPSIELERFYSASQSLASSSVRELSPAEHANLQAITDYLKDHVFAAHKLPLSESAVDQDAVHAHNEQLDKIIDARARRLLDEGETPATIADTFAKAEKFDRMATTASITLRATPFAAASVLQYMQPAINKGDWLPMPLKPLTPFVSGALSGIMDQVGTTVMNRATGNLHYLSTPPEKLHDAMAASVKRHSPGVMRQAVDLGIAIQAYSARNAVRTVLAPALASRPAVQGAVDISVSAAGGLAANAGFGNRMHSVQARDHLRGGAFVLGIKDQEPKADLSEETDWLVAYKAIKSASYSGAALNAGKRVAGLPLDVATDGLKAVRSLVSATGLAQNGLALAGGFAGVGKLQEMATKNITDPATKAAVSQLTNMAASTGVFAAWTTAAVATDPAVKKAESFLQDTVKSAASSSTSYVADQTVKLAKAGIDASGEAIAATGASLLDTLRRRNAREPDIEEGGIAAGSPSAVPFQPGRS
MHKAGLLGLCARAWNSVRMASSGMTRRDPLANKVALVTASTDGIGFAIARRLAQDGAHVVVSSRKQQNVDQAVATLQGEGLSVTGTVCHVGKAEDRERLVATAVKLHGGIDILVSNAAVNPFFGSIMDVTEEVWDKTLDINVKAPALMTKAVVPEMEKRGGGSVVIVSSIAAFSPSPGFSPYNVSKTALLGLTKTLAIELAPRNIRVNCLAPGLIKTSFSRMLWMDKEKEESMKETLRIRRLGEPEDCAGIVSFLCSEDASYITGETVVVGGGTPSRL
MHKTIAVLLGIVCFLPVMAKAGGAETDATDASDVKTLFFNHDDRVPVADPTQSPWDAIGQLETASGNLCTATLISPHIALTAGHCLLTPPKGKPDKAVALRFVARKGVWRYEIHGIEGRVEPSLGRRLKADGDGWIVPPAAASWDFGLVILRYPPSGITPVPLFTGDKAALTAALKAADRKVTQSGYPEDHLNALYSHQDCVVTGWAQNAVLSHQCDTLPGDSGSPLLLHTDSGWQLIGVQSSAPAAKDRWRADNRAISVTGFRDKLKALAQD
MHLNANLKYCCLWKLQSPHSCVPMLVWNCSLHPPSQYCSPLFETAVAENINRLSSHCIKKKSIQRGEKMKQTLRLLGAVTLLGITGCQFNQPPVSSIGAWEKPGADFTEIGKALLECGMPTPYDRDPENDNRSFNQMATIDACMLQAGFRYKYDVGGGMVWKS
MHRRAVVLFTAALLLGLGLPRASAESRQDEPTSLITSPGYTRTTASPGPGLTLFTYQNPDDDRVVHVLRADPDAAPLTVESTAGTSGARAEKTTDMLKSTTGYAPRWPHAGLNGGFWYRQGDTLAFMGISVQEGVVQSASCSAAGRGEAALIQHGRPYIGDFTTHLAVTAPGAAPMPLDGVNRHPGWMTGCAQGSGATADRSIGGGVFADASEIIAFTSRFKAPTPVPDADARFTEDDDPGAEAVVAADGTVLSLNPNGRGGVTVPTGGRVLQGTGTGADWLRAHATPGTDLAFEERLHDERFGDDIPLDSSVDVVNGHYPLVHNAQYAYTGQNTAVDPRSAIAVDGPGRTLFVTATGKSGRNGVTLDEFARILLDLGAVDGLNMDGGGSTTLVVEQAVVNRPSDSTGERPVADSLYIGHGGYGHYADLEHHHHHH
MHTKPPIERIMYIELRTSLELFRSDLVDLEALANAAKEALEQLPYIPKEPCGKGEDDPLSGPESALRTGRLCGLVCCTATAAEGALSTCSKLIDWAYENEPEGVDDAVLVDDIDDDDDDDDDGSNGANGGGGANGSGNGSNGSGNGSPPDGGVEGAAPSLDADELAQARPSRGGIALDLAQCATTTDRPVA
MHWRLTVLFFASAQLSEGCLPMVPPEEPVTPVPVCPAGWFQFQRATGLWCYIFATPGAGWTTPQAACQANYGANLNGFESAAERTQFIQDMLASNLAPYTFVHIGAMRQCAPCTVNDPFVWLNGVSNDNTFANDYDSLYDLTGDCLSMDLGNNGQYNDITCDAETAYSCGKPAA
